# According to publication PMC5428233, “Cross-beta nanostructures based on dinaphthylalanine Gd-conjugates loaded with doxorubicin” (Scientific Reports, 2017):
# Experiments:
# Assay type in all cases: physicochemical
# [1] = Water proton relaxation measurements / NMRD profiles; conditions: aqueous solution, 298 K
# Excerpt: The paramagnetic relaxivity (r1p) of Gd (III) complexes is given by:1 r1p∝1/T1MH=Kf(τR) where K is a constant related to the strength of the dipolar interaction between the protons and the electronic magnetic moment, and τR is the correlation time associated with the reorientation of the Gd-H magnetic vector. This means that slowly moving high molecular weight systems are endowed with higher relaxivity than rapidly reorienting low molecular weight ones. In the case of self assembling Gd-containing systems, the extent of aggregation may be evaluated through the measure of the water proton longitudinal relaxation rate of its aqueous solution. In Fig. 8 are reported the NMRD (Nuclear Magnetic Resonance Dispersion) profiles of Gd-2Nal2 acquired at 21.5 MHz (0.5 T) and 298 K as a function of the complex concentration. […] At concentrations higher than 10–15 mg/mL the relaxivity assumes an almost stable value which corresponds to the system in the completely aggregated form. By analyzing the profile of the relaxivity data as a function of the applied field strength (NMRD - Nuclear Magnetic Relaxation Dispersion) it is possible to obtain an accurate determination of the reorientational correlation time (τR)[16], that is strictly related to the molecular size of the investigated system. NMRD profiles were acquired below (black circles) and above (white ones) the CAC values determined by ANS titration and ^1HNMR. […] Data were analyzed using the Solomon-Bloembergen-Morgan model, [18], considering one water molecule in the inner coordination sphere (q = 1) and fixing the exchange lifetime (τM) to a reliable value ([…]) on the basis of those previously reported for mono-amido DOTA derivatives[19]–[22]. The quantitative analysis of the NMRD profile of the aggregated form was not satisfactory when the simple inner- outer-sphere model was used, so the Lipari-Szabo approach was used for the description of the rotational dynamics. This model allows one to take into account the presence ofa certain degree of internal rotation superimposed on the overall tumbling motion, [24]. These two types ofmotion, a relatively fast local rotation of the coordination cage about the linker to the peptide scaffold superimposed on the global reorientation of the system, are characterized by different correlation times: τR ^l and τR ^g, respectively. The degree of correlation between global and local rotations is given by the parameter S^2, which takes values between 0 (completely independent motions) and 1 (entirely correlated motions).
# Measure of R1 (longitudinal water proton relaxation rates) of Gd-2Nal2 were carried out on a Stelar Spinmaster spectrometer (Pavia, Italy) operating at 0.5 T which corresponds to 21.5 MHz Proton Larmor Frequency. R1 (1/T1) values were measured at 298 K by mean of the standard inversion-recovery technique. For the measure of the proton 1/T1 NMRD (Nuclear Magnetic Resonance Dispersion) profiles, a fast field-cycling Stelar relaxometer, operating over a continuum of magnetic field strengths from 0.00024 to 0.47 T (corresponding to 0.01–20 MHz proton Larmor frequencies) was used. The temperature was set at 298 K. The relaxometer is computer controlled and the absolute uncertainty is 1/T1 ± 1%. Additional data points were obtained on a Stelar Spinmaster spectrometer coupled to an electromagnet tunable at different Larmor Frequencies between 21.5 and 70 MHz. Experimental temperature control was obtained with an air-flow heater (Stelar VTC-91) endowed of a copper constantan thermocouple (uncertainty 0.1 °C). A previously reported relaxometric method[39] was used for the determination of the concentrations of the solutions used for the relaxometric characterization. The conventional Solomon-Bloembergen-Morgan theory was used for fitting of experimental data.
# [2] = Aggregation by 1D 1H NMR at increasing concentration; conditions: H2O/D2O 90/10 v/v
# Excerpt: This trend was also confirmed by ^1HNMR measurements (see Figure S4). We have recently analyzed the conformational properties of DOTA-L6-F4 in aqueous solution by mono- and multi-dimensional, homo- and hetero-nuclear NMR techniques. In the present work we have used a similar approach and thus implemented 1D [^1H] and 2D [^1H, ^1H] NMR spectroscopy to study two different compounds: DOTA-L6-F2 and 2Nal2 analogue in absence and in presence of the DOTA coordinated metal ion lanthanum (III), La. We used lanthanum (III) since it gives rise to a NMR “easy to handle” diamagnetic complex. Both DOTA-L6-F2 and 2Nal2 present low aggregation propensities. […] In detail by comparing spectra recorded at 0.3 mg/mL and 5.0 mg/mL chemical shift changes appear relevant in the spectral regions between 8.0 and 8.2 ppm, where signals from HN amide protons are present and between 3.0 and 3.5 ppm where several peaks overlap (Table S1). […]
# NMR experiments were acquired in the temperature range of 298–303 K on either a Varian Unity Inova 600 MHz spectrometer provided with a cold probe or a 400 MHz Varian instrument provided with a 5-mm triple resonance probe and z-axis pulsed-field gradients. […] The DOTA-L6-F2 was analyzed in the concentration range 0.3 mg/mL (i.e., 0.3 mM)–5.0 mg/mL (i.e., 4.8 mM); for the La-DOTA-L6-F2 the examined concentration range was 0.3 mg/mL (i.e., 0.3 mM)–10.0 mg/mL (i.e., 8.5 mM). […]
# [3] = Transmission electron microscopy of self-assembled conjugates; conditions: 5.0 mg/mL solution dried on grid, phosphotungstic acid stain
# Procedure: Self-assembled peptide conjugate at 5.0 mg/mL, as free base or as metal complex, was initially characterized using TEM. […] The presence of a diffraction pattern both in SAXS and in WAXS is fingerprint of a hierarchical organization of the molecules in fibers from the atomic to the nanoscale.
# TEM images were acquired by LaMest (Pozzuoli, Italy) with a FEI TECNAI G12 Spirit-Twin microscope (LaB6 source) endowed of a bottom mounted FEI Eagle-4k CCD camera (Eindhoven, The Netherlands), working at 120 kV.
# [4] = Self-aggregation by intrinsic naphthyl fluorescence (intensity decrease, excimer peak); conditions: water, room temperature, excitation 280 nm
# Procedure: Self-organization of the peptide conjugates at the atomic level was further characterized also in solution with fluorescence, UV-Vis, ^1HNMR, CD and FTIR spectroscopies. […] From ispection of Fig. 1b, the typical emission spectrum of the 2-naphthyl group with three maxima at 325, 340 and 355 nm, respectively, can be detected.
# The determination of CAC (critical aggregate concentration) values was determined as previously described[6] by the titration of the fluorescent probe ANS (8-anilino-1-naphthalene sulfonic acid ammonium salt)[28], [29] with the peptide conjugates[30].
substance,measurement,setting,value
Gd-DOTA-L6-F2 [reference compound],r1p (longitudinal proton relaxivity),[1]; complex at 1 mg/mL,5.7 mM⁻¹ s⁻¹
same,r1p (longitudinal proton relaxivity),"[1]; complex at 25 mg/mL (nanoaggregates), text: at 20 MHz",6.0 mM⁻¹ s⁻¹
DOTA-L6-(2Nal)2 [2Nal2],aggregation propensity by 1H NMR (in words),"[2]; 2Nal2 0.1-5.0 mg/mL, La-DOTA-L6-F2 0.3-10.0 mg/mL",cannot reveal significant aggregation
same,supramolecular aggregation / morphology in TEM images,[3],long fibrillary nanostructures
same,concentration of appearance of the excimer peak (380-430 nm) / formation of stable aggregates,[4],above 2.0 mg/mL
same,concentration at which self-aggregation begins (decrease of fluorescence intensity),[4]; 0.025-20.0 mg/mL range,200 to 500 µg/mL
DOTA-L6-F2 [reference compound],concentration at which aggregation appears in 1H NMR spectra (spectral changes / line broadening),[2]; 298-303 K,higher than 1.2 mg/mL
